The record followed here is article PMC10545799.

Assay [1] has as its target dsc-Agg5A (donor strand complemented major pilin subunit Agg5A of AAF/V) (enteroaggregative E. coli). In words: SAXS; engineered subunit samples (monomer fractions of the gel filtration) in solution, 10 °C, dilutions 1:1 and 1:2; molecular weight and aggregation number from Guinier analysis; self-association.
For assay [2], the target named is dsc-Agg5AB (chimeric donor strand complemented construct of minor pilin subunit Agg3B and major pilin subunit Agg5A) (enteroaggregative E. coli). Described as above.

In the case of “dsc-Agg5A (donor strand complemented major pilin subunit Agg5A of AAF/V) (domain or fragment)”, the stoichiometry N in assay [1] is 2.

“dsc-Agg5AB (chimeric donor strand complemented construct of minor pilin subunit Agg3B and major pilin subunit Agg5A)”: the stoichiometry N in assay [2] was 6.8.
